Where a chain is given by its changes, count along the chain named. Names may count otherwise. One block for each binder: values may come before it.
How the values were obtained:
Settings in all cases: both partners purified
[1] = target: Cdk2/cyclin A binary complex (human, UniProt P24941 1-298; P20248 173-432); experiment: single-molecule fluorescence anisotropy (smFA); BODIPY-labelled single-Cys p27, not phosphorylated, free or in complex with Cdk2/cyclin A, diluted to pM; 20 mM HEPES pH 7.5, 300 mM NaCl, 40 µM TROLOX; average anisotropy of free and complexed p27 compared
[2] = target: T1, Cdk2/cyclin A binary complex (human, UniProt P24941 1-298; P20248 173-432); experiment: single-molecule fluorescence anisotropy (smFA); BODIPY-labelled single-cysteine p27 in complex with Cdk2/cyclin A, freely diffusing molecules at pM concentration; 20 mM HEPES pH 7.5, 300 mM NaCl, 40 µM TROLOX
[3] = target: T1, Cdk2/cyclin A binary complex; experiment: FRET or BRET; single-molecule FRET (smMFD) within dual-labelled p27 in complex with Cdk2/cyclin A, freely diffusing molecules at pM concentration; 20 mM HEPES pH 7.5, 300 mM NaCl, 40 µM TROLOX
[4] = target: T1, Cdk2/cyclin A binary complex; experiment: ITC; 10 µM p27 or p27 Y to E variants injected into 1 µM Cdk2/cyclin A binary complex; 20 mM HEPES pH 7.5, 300 mM NaCl, 2 mM TCEP; experiments from 5 to 25 °C in intervals of 5 °C (temperature of the tabulated values not stated); single-site binding model

B1: p27-C29 (full-length p27-Y89F with the single native Cys 29, labelled with BODIPY-FL) (natural protein)
chain: MSNVRVSNGSPSLERMDARQAEHPKPSACRNLFGPVDHEELTRDLEKHARDMEEASQRKWNFDFQNHKPLEGKYEWQEVEKGSLPEFYFRPPRPPKGASKVPAQESQDVSGSRPAAPLIGAPANSEDTHLVDPKTDPSDSQTGLAEQSAGIRKRPATDDSSTQNKRANRTEENVSDGSPNAGSVEQTPKKPGLRRRQT
modifications: BODIPY-FL on Cys 29
notes: p27Kip1 (p27), human, residues 1-198 (full length), Y89F; Cys 29 kept, the other three native Cys replaced; also called p27-29C; source: E. coli, purified (Ni-NTA, His-tag removed with thrombin, reverse-phase HPLC over C4); labelled with BODIPY-FL
- binding result [1]: binds

B2: BODIPY-labeled p27-C29 (natural protein)
chain: B1 chain
modifications: BODIPY-FL on the native cysteine at 29
notes: p27Kip1 (p27), human, p27-Y89F background with the single native Cys 29 kept; also called p27–29C; source: E. coli, purified; labelled with BODIPY-FL
- binding result [2]: binds

B4: p27-C75-110 (Alexa Fluor 488 / Alexa Fluor 647 labelled) (natural protein)
chain: B1 chain with C29A, E75C, S110C
modifications: Alexa Fluor 488 maleimide and Alexa Fluor 647 maleimide on the cysteines at 75 and 110
notes: p27Kip1 (p27), human, in the Cys-less p27-Y89F background; source: E. coli, purified; dye-labelled, dual-labelled species separated by ion-exchange chromatography
- binding result [3]: binds

B8: p27-C54 (Cys-less full-length p27-Y89F with E54C, labelled with BODIPY-FL) (natural protein)
chain: B1 chain with C29A, E54C
modifications: BODIPY-FL on Cys 54
notes: p27Kip1 (p27), human, residues 1-198 (full length), Y89F, Cys-less background, Glu 54 to Cys; also called p27-54C; source: E. coli, purified (Ni-NTA, His-tag removed with thrombin, reverse-phase HPLC over C4); labelled with BODIPY-FL
- binding result [1]: binds

B9: p27-C75 (Cys-less full-length p27-Y89F with E75C, labelled with BODIPY-FL) (natural protein)
chain: B1 chain with C29A, E75C
modifications: BODIPY-FL on Cys 75
notes: p27Kip1 (p27), human, residues 1-198 (full length), Y89F, Cys-less background, Glu 75 to Cys; also called p27-75C; source: E. coli, purified (Ni-NTA, His-tag removed with thrombin, reverse-phase HPLC over C4); labelled with BODIPY-FL
- binding result [1]: binds

B13: pY88-p27-C54-93 (Alexa Fluor 488 / Alexa Fluor 647 labelled) (natural protein)
chain: B1 chain with C29A, E54C, R93C
modifications: phosphotyrosine at 88; Alexa Fluor 488 maleimide and Alexa Fluor 647 maleimide on the cysteines at 54 and 93
notes: p27Kip1 (p27), human, in the Cys-less p27-Y89F background; source: E. coli, purified; dye-labelled; phosphorylated with ABL-KD
- binding result [3]: binds

Continued, values first:

- binding result [2]: binds
B3: BODIPY-labeled p27-C93 (natural protein)
chain: B1 chain with C29A, R93C
modifications: BODIPY-FL on the cysteine at 93
notes: p27Kip1 (p27), human, in the Cys-less p27-Y89F background; source: E. coli, purified; labelled with BODIPY-FL

- binding result [3]: binds
B5: p27-C29-54 (Alexa Fluor 488 / Alexa Fluor 647 labelled) (natural protein)
chain: B1 chain with E54C
modifications: Alexa Fluor 488 maleimide and Alexa Fluor 647 maleimide on the cysteines at 29 and 54
notes: p27Kip1 (p27), human, p27-Y89F background with the native Cys 29 kept; source: E. coli, purified; dye-labelled, dual-labelled species separated by ion-exchange chromatography

- binding result [3]: binds
B6: p27-C54-93 (Alexa Fluor 488 / Alexa Fluor 647 labelled) (natural protein)
chain: B1 chain with C29A, E54C, R93C
modifications: Alexa Fluor 488 maleimide and Alexa Fluor 647 maleimide on the cysteines at 54 and 93
notes: p27Kip1 (p27), human, in the Cys-less p27-Y89F background; also called p27-C54-C93; source: E. coli, purified; dye-labelled, dual-labelled species separated by ion-exchange chromatography

- binding result [2]: binds
B7: BODIPY-labeled pY88-p27-C93 (natural protein)
chain: B1 chain with C29A, R93C
modifications: phosphotyrosine at 88; BODIPY-FL on the cysteine at 93
notes: p27Kip1 (p27), human, in the Cys-less p27-Y89F background; source: E. coli, purified; labelled with BODIPY-FL; phosphorylated with ABL-KD

- binding result [1]: binds
B10: p27-C93 (Cys-less full-length p27-Y89F with R93C, labelled with BODIPY-FL) (natural protein)
chain: B1 chain with C29A, R93C
modifications: BODIPY-FL on Cys 93
notes: p27Kip1 (p27), human, residues 1-198 (full length), Y89F, Cys-less background, Arg 93 to Cys; also called p27-93C; source: E. coli, purified (Ni-NTA, His-tag removed with thrombin, reverse-phase HPLC over C4); labelled with BODIPY-FL

- Kd [4]: 14 nM
- dH [4]: -34.4 kcal/mol
B11: Y74E/Y88E-p27 (natural protein)
chain: B1 chain with A49C, Y74E, Y88E, S99C, S148C
notes: p27Kip1 (p27), human, residues 1–198 (full length); also called Y88E/Y74E; dual Y phosphomimetic p27; source: E. coli, purified (Ni2+-NTA, His-tag removed with thrombin, reverse-phase HPLC over C4 resin)

- binding result [1]: binds
B12: p27-C40 (Cys-less full-length p27-Y89F with E40C, labelled with BODIPY-FL) (natural protein)
chain: B1 chain with C29A, E40C
modifications: BODIPY-FL on Cys 40
notes: p27Kip1 (p27), human, residues 1-198 (full length), Y89F, Cys-less background, Glu 40 to Cys; also called p27-40C; source: E. coli, purified (Ni-NTA, His-tag removed with thrombin, reverse-phase HPLC over C4); labelled with BODIPY-FL
